Each block holds one molecule with its values, some of them ahead of it.
How the values were obtained:
CCR3 (human) [1] = target: CCR3 (human) (UniProt P51677); assay: cell-based or functional assay
hCCR2b = target: T1, hCCR2b (human, UniProt P41597 1-374); assay: cell-based or functional assay
T1 chain: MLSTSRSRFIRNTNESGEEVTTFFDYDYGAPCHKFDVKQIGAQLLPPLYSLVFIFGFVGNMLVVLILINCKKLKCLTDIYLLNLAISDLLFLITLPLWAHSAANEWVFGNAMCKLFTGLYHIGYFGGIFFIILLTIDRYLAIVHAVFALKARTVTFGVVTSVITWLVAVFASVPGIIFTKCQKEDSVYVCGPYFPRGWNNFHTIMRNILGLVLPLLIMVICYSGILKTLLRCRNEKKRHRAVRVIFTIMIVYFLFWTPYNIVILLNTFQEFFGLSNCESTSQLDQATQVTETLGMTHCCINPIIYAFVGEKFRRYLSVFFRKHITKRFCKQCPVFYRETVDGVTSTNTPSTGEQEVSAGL

CCR5 (human) [2] = target: CCR5 (human) (UniProt P51681); assay: cell-based or functional assay
CCR9 (human) = CCR9 (human) (UniProt P51686); assay: cell-based or functional assay
CCR5 (human) [3] = target: CCR5 (human) (UniProt P51681); assay: in vitro depletion: biotinylated RANTES coupled matrix, flow cytometry for CCR1, 3 or 5-expressing cells (receptor not singled out)
CCR3 (human) [4] = target: CCR3 (human) (UniProt P51677); assay: as above
CCR1 = CCR1 (UniProt P32246); assay: as above
CCR3 (human) [5] = target: CCR3 (human) (UniProt P51677); assay: in vitro depletion: blood passed through magnetic column with eotaxin coupled MACS beads, flow cytometry for CCR3-expressing cells

CCR3 (human), sequence (P51677 whole entry): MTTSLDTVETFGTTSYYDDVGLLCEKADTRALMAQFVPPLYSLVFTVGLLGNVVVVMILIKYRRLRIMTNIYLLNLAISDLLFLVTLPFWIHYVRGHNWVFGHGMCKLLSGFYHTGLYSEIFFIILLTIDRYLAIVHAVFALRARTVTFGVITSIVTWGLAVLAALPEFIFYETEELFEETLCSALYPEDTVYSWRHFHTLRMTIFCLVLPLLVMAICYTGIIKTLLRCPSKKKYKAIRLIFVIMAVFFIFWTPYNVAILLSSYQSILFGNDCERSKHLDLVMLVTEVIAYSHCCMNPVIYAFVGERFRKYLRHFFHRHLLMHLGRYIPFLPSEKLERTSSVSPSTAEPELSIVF
CCR5 (human), sequence (P51681 whole entry): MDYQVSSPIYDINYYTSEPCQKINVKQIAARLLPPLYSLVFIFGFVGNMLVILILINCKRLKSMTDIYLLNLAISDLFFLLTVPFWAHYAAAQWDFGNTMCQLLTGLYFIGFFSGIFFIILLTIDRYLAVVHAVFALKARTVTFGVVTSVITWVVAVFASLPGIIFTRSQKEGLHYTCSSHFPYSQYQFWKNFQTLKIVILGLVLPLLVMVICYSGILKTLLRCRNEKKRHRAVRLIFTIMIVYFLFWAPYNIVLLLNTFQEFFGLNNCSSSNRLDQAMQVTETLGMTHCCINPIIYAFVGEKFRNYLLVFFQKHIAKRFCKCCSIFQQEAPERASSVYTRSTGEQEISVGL
CCR9 (human), sequence (P51686 whole entry): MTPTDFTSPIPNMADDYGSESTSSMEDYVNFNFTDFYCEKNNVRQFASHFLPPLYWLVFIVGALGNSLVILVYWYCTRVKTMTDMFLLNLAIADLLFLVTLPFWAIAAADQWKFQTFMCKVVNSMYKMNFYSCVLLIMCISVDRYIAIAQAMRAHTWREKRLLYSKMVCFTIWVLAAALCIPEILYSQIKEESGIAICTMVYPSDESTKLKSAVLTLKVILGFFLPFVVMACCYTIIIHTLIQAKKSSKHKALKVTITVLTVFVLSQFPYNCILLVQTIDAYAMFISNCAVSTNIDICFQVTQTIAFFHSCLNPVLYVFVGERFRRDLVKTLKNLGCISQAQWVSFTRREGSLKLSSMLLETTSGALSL
CCR1, sequence (P32246 whole entry): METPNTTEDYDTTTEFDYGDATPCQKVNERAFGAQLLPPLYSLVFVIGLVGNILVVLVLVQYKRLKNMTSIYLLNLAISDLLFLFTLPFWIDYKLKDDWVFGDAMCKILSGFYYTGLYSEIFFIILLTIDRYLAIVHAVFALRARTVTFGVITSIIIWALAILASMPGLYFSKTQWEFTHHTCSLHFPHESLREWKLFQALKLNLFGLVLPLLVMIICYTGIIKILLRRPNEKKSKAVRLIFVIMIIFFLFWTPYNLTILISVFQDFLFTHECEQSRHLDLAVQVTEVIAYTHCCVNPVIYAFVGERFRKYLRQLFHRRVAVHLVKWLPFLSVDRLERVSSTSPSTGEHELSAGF

Molecule: biotinEotaxin (CCL11) (ligand)
EC50, Aequorin assay (antagonist) (CCR3 (human) [1]): 212 nM

Molecule: biotinTECK(Met to Nleu substitution) (ligand)
EC50, Aequorin assay (agonist activity) (CCR9 (human)): 63.6 nM

Molecule: biotinylated RANTES coupled matrix (ligand)
reduction of receptor-expressing cells by the column (CCR5 (human) [3]): 20%
reduction of receptor-expressing cells by the column (CCR3 (human) [4]): 20%
reduction of receptor-expressing cells by the column (CCR1): 20%

Molecule: recombinant native eotaxin (ligand)
EC50, Aequorin assay (agonist) (CCR3 (human) [1]): 10.7 nM

The next lines start with the values.

EC50, Aequorin assay (partial agonist) (hCCR2b): 50.9 nM
Molecule: biotinMCP-2 (CCL8) (ligand)

EC50, Aequorin assay (agonist activity) (CCR5 (human) [2]): 0.5 nM
Molecule: biotinRANTES (CCL5) (ligand)

reduction of receptor-expressing cells by the column (CCR3 (human) [5]): 25%
Molecule: biotinylated eotaxin coupled matrix (ligand)

EC50, Aequorin assay (agonist activity) (CCR9 (human)): 67.9 nM
Molecule: recombinant native TECK (from UniProt O15444 24-150) (ligand)

EC50, Aequorin assay (partial agonist) (hCCR2b): 23.5 nM
B1: recombinant native MCP-2 (ligand, UniProt P80075 24-99, looked up)
chain: QPDSVSIPITCCFNVINRKIPIQRLESYTRITNIQCPKEAVIFKTKRGKEVCADPKERWVRDSMKHLDQIFQNLKP
